Results reported in publication PMC10356863, “Architecture of the human G-protein-methylmalonyl-CoA mutase nanoassembly for B12 delivery and repair” (Nature Communications, 2023).

Experiments:
Assay in all cases: cell-based or functional assay
[1] = molecular target: T1, human MMUT R694W (patient variant) (human, UniProt P22033 33-750, R694W)
T1 sequence: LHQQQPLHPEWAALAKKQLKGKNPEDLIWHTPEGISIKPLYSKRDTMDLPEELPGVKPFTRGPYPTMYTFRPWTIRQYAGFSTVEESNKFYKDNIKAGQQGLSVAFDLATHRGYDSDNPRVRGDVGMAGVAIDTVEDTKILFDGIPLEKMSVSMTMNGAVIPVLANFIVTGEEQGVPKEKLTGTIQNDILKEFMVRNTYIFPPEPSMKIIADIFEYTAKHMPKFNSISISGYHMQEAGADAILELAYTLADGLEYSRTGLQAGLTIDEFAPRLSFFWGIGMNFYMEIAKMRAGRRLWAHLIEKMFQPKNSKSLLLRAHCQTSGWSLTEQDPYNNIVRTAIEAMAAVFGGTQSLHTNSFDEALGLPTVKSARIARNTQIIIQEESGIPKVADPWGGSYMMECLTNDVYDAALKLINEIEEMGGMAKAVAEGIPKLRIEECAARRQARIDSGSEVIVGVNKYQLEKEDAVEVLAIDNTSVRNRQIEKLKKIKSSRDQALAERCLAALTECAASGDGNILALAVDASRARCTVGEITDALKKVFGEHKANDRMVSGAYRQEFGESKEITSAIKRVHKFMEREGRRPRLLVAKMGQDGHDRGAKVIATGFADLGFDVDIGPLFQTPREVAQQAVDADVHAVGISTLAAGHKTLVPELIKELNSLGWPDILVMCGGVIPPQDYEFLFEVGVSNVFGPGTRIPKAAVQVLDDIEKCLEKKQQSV

[2] = molecular target: T2, human MMUT R616C (patient variant) (human, UniProt P22033 33-750, R616C)
T2 sequence: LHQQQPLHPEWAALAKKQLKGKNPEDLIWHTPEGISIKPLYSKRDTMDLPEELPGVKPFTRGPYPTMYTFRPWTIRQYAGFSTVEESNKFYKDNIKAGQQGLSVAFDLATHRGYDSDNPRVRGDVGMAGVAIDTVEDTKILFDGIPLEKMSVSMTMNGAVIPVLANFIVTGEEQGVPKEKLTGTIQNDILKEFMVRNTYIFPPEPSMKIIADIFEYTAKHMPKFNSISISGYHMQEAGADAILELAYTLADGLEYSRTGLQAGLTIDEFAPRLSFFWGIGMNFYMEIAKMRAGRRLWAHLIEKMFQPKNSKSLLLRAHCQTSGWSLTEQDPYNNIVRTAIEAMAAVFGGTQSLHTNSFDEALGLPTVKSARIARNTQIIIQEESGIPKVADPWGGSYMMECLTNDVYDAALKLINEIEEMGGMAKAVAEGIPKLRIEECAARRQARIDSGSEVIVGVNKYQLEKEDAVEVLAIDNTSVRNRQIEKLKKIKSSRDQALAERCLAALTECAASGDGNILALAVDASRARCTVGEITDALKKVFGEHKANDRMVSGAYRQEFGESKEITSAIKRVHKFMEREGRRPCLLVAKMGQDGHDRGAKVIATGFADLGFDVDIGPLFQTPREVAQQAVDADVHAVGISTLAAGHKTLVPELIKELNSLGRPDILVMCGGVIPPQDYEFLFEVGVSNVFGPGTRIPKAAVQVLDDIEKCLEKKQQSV

[3] = molecular target: T3, human MMUT R228Q (patient variant) (human, UniProt P22033 33-750, R228Q)
T3 sequence: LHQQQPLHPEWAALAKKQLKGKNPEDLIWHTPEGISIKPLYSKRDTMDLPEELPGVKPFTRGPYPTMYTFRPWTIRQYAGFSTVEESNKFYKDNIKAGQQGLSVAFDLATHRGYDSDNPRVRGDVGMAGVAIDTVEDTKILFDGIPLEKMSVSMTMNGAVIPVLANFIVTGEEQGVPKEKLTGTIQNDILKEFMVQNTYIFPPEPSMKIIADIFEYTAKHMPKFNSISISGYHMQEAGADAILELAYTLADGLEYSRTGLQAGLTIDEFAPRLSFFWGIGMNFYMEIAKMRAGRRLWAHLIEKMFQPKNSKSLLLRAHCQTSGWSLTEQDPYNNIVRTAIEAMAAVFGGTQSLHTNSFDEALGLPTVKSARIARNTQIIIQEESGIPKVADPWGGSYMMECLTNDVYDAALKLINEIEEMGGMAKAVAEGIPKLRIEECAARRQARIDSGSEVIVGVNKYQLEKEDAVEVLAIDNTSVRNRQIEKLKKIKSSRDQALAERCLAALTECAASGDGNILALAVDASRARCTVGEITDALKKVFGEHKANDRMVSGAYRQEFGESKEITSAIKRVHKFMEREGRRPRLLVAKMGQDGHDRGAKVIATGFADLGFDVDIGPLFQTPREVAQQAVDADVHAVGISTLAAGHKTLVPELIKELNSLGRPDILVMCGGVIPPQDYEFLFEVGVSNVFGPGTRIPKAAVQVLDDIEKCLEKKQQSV

GAP activation: GTPase activity of MMAA in the presence of MMUT, fold attenuation against wild-type MMUT [1]: 12 fold | GAP activation: GTPase activity of MMAA in the presence of MMUT, fold attenuation against wild-type MMUT [2]: 7 fold | GAP activation: GTPase activity of MMAA in the presence of MMUT, fold attenuation against wild-type MMUT [3]: 12 fold
B1: human MMAA (G-protein chaperone of MMUT), wild type (enzyme)
chain: KDHTEGLSDKEQRFVDKLYTGLIQGQRACLAEAITLVESTHSRKKELAQVLLQKVLLYHREQEQSNKGKPLAFRVGLSGPPGAGKSTFIEYFGKMLTERGHKLSVLAVDPSSCTSGGSLLGDKTRMTELSRDMNAYIRPSPTRGTLGGVTRTTNEAILLCEGAGYDIILIETVGVGQSEFAVADMVDMFVLLLPPAGGDELQGIKRGIIEMADLVAVTKSDGDLIVPARRIQAEYVSALKLLRKRSQVWKPKVIRISARSGEGISEMWDKMKDFQDLMLASGELTAKRRKQQKVWMWNLIQESVLEHFRTHPTVREQIPLLEQKVLIGALSPGLAADFLLKAFKSRD
